The results in this text go back to patent US20230002478A1.

Experiment [1] addresses Fc-gamma Receptor 1 (FcγR1) (UniProt P12314).
Experiment [2] has as its target FcγR2B/C (UniProt P31994). The experiment can be described thus: SPR, kinetic fit. (In SPR one partner is held on a chip, and binding of the other changes the refractive index at the surface.)
Experiment [3] addresses FcγR2a H167 (UniProt P12318). The experiment can be described thus: SPR, kinetic fit.
Experiment [4] has as its target FcγR3A 176F (UniProt P08637). The experiment can be described thus: SPR, kinetic fit.
Experiment [5] concerns the target FcγR3A 176V (UniProt P08637). The experiment can be described thus: SPR, kinetic fit.
Experiment [6] deals with FcγR2B/C (UniProt P31994). The experiment can be described thus: SPR, steady state fit.
Experiment [7] addresses FcγR2a H167 (UniProt P12318). The experiment can be described thus: SPR, steady state fit.
Experiment [8] has as its target FcγR3A 176F (UniProt P08637). The experiment can be described thus: SPR, steady state fit.
The target of experiment [9] is FcγR3A 176V (UniProt P08637). The experiment can be described thus: SPR, steady state fit.
The target in experiment [10] is neonatal Fc receptor (FcRn) (Human) (UniProt P55899). The experiment can be described thus: SPR at pH 6.0, kinetic fit.
For experiment [11] the target is unchanged. The experiment can be described thus: SPR at pH 6.0, steady state fit.
Experiment [12] has as its target FcγR2a R167 (UniProt P12318). The experiment can be described thus: SPR, kinetic fit, first of two runs.
Experiment [13] concerns the target FcγR2a R167 (UniProt P12318). The experiment can be described thus: SPR, kinetic fit, second of two runs.
Experiment [14] concerns the target FcγR2a R167 (UniProt P12318). The experiment can be described thus: SPR, steady state fit, first of two runs.
Experiment [15] addresses Fc-gamma Receptor 1 (FcγR1) (UniProt P12314). The experiment can be described thus: SPR, experimental Rmax / theoretical Rmax.
The target in experiment [16] is FcγR2B/C (UniProt P31994). The experiment can be described thus: SPR, experimental Rmax / theoretical Rmax.
Experiment [17] deals with FcγR3A 176F (UniProt P08637). The experiment can be described thus: SPR, experimental Rmax / theoretical Rmax.
The target in experiment [18] is FcγR2a R167 (UniProt P12318). The experiment can be described thus: SPR, steady state fit, second of two runs.
For experiment [19], the target named is neonatal Fc receptor (FcRn) (Human) (UniProt P55899). The experiment can be described thus: SPR at pH 6.0, experimental Rmax / theoretical Rmax.
For experiment [20], the target named is biotinylated SARS-CoV-2 spike RBD (Ancestral) (SARS-CoV-2) (UniProt P0DTC2). The experiment can be described thus: AlphaLISA, inhibition of ACE2-muFc / biotinylated spike complex. Background: In Alpha technology, singlet oxygen from a donor bead excites a nearby acceptor bead.

FcγR2B/C, sequence (P31994 46-217): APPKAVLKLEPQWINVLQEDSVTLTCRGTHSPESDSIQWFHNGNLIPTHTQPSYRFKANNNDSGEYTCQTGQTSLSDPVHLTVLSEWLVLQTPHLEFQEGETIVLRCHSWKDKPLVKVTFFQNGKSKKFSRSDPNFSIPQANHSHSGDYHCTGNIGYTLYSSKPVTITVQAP
FcγR3A 176F, sequence (P08637 17-208): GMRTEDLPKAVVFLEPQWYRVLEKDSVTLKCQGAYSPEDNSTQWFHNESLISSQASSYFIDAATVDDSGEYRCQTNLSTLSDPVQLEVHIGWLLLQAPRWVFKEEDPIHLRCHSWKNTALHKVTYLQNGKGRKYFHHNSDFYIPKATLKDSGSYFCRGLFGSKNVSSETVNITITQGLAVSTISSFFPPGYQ
neonatal Fc receptor (FcRn) (Human), sequence (P55899 24-297): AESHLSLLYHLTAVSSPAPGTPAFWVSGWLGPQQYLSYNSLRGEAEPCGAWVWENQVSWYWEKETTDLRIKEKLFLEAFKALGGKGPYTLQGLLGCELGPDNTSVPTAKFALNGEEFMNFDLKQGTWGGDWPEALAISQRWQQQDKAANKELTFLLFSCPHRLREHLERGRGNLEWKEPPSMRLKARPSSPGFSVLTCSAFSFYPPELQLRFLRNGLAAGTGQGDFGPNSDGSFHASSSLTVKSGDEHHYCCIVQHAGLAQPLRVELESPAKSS
FcγR2a R167, sequence (P12318 36-218 H167R): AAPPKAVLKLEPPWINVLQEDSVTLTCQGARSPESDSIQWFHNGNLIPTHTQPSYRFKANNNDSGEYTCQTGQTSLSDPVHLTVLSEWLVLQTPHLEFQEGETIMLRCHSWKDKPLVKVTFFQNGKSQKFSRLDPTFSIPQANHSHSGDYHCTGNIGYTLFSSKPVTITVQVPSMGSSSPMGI
FcγR3A 176V, sequence (P08637 17-208 F176V): as the sequence (P08637 17-208) above, with F160V counted along it
FcγR2a H167, sequence (P12318 36-218): as the sequence (P12318 36-218 H167R) above, with R132H counted along it
Fc-gamma Receptor 1 (FcγR1), sequence (P12314 16-288): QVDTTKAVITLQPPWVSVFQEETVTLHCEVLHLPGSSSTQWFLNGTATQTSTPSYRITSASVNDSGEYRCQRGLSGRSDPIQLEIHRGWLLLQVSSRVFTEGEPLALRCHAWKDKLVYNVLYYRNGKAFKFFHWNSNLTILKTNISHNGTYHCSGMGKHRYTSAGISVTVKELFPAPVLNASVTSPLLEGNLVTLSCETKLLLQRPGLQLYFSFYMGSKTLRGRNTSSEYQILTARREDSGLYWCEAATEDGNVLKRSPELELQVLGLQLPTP

The term Kd denotes the equilibrium constant for the complex coming apart. Read a low Kd as tighter binding. One may read the IC50 as the point on the concentration scale where inhibition reaches its midpoint. Low readings indicate higher potency, high ones lower potency. For “anti-RBD neutralizing monoclonal antibody (human IgG1) from Acro Biosystems (SAD-S35)”, the Kd in experiment [1] is 0.46 nM; in experiment [2], 1360 nM; in [3], 462 nM; in experiment [4] it was 1110 nM; in experiment [5] it was 161 nM; in experiment [6], 1590 nM. In addition, the Kd is 537 nM in experiment [7]; 796 nM in experiment [8]; 210 nM in [9]; 81.1 nM in experiment [10]; 86.5 nM in experiment [11]; 596 nM in [12]. For the same substance, the Kd worked out at 650 nM in [13], 636 nM in experiment [14] and 640 nM in [18]. Also, the % Activity in experiment [15] is 120%; in experiment [16], 93%; in experiment [17], 92%; in experiment [19], 116%. The substance also gave an IC50 in experiment [20] of 6.8 nM.
